{"source": "paper PMC11855606", "key": {"[1]": {"biological_target": "growth hormone receptor a (ghra) of Cynoglossus semilaevis, mScarlet-I fusion (pcDNA3.1-S-ghra) (Cynoglossus semilaevis)", "sequence (main, as listed by the source)": "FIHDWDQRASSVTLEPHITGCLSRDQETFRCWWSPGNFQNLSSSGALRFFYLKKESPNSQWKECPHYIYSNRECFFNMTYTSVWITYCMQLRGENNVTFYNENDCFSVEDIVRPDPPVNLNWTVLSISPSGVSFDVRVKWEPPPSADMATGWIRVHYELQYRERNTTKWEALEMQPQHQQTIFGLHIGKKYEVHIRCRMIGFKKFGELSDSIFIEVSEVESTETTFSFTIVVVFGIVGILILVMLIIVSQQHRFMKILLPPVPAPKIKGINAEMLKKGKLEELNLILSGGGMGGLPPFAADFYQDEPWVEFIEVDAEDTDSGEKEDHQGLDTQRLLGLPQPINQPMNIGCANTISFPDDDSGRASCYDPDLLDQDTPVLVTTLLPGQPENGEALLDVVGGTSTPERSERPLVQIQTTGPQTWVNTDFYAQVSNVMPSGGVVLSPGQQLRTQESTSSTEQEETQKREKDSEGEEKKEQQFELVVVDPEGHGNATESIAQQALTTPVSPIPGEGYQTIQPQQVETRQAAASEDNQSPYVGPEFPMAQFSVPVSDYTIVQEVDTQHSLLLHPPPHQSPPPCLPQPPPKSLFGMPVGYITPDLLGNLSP", "experiment": "FRET or BRET; acceptor bleaching FRET in HEK 293T cells co-transfected with the mNeonGreen-ligand and mScarlet-I-receptor plasmids at a 1:2 ratio, 48 h after transfection, Nikon A1R HD25 confocal microscope; FRETeff = (Dpost - Dpre)/Dpost"}, "[2]": {"biological_target": "growth hormone receptor b (ghrb) of Cynoglossus semilaevis, mScarlet-I fusion (pcDNA3.1-S-ghrb) (Cynoglossus semilaevis)", "sequence (main, as listed by the source)": "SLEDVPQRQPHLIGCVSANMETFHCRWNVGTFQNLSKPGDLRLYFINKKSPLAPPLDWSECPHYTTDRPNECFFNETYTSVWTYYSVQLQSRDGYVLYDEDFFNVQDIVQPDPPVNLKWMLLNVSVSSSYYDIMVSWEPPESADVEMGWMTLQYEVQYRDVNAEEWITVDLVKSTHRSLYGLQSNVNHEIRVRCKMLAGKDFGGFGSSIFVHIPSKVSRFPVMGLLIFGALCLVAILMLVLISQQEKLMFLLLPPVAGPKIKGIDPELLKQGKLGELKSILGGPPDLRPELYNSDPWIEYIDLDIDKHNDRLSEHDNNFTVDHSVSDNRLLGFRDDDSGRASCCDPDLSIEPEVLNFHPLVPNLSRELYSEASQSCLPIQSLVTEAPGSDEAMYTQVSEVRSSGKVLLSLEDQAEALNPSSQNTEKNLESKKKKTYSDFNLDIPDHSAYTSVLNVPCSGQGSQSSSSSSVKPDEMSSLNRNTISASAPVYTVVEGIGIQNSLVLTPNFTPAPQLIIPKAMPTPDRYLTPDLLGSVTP", "experiment": "FRET or BRET; acceptor bleaching FRET in HEK 293T cells co-transfected with the mNeonGreen-ligand and mScarlet-I-receptor plasmids at a 1:2 ratio, 48 h after transfection, Nikon A1R HD25 confocal microscope; FRETeff = (Dpost - Dpre)/Dpost"}}, "data": [{"substance": "growth hormone (gh) of Cynoglossus semilaevis, mNeonGreen fusion (pcDNA3.1-N-gh) (ligand)", "values": [{"measurement": "FRET efficiency", "setting": "[1]", "result": 0.0534}, {"measurement": "FRET efficiency", "setting": "[2]", "result": 0.036}]}, {"substance": "somatolactin (sl) of Cynoglossus semilaevis, mNeonGreen fusion (pcDNA3.1-N-sl) (ligand)", "values": [{"measurement": "FRET efficiency", "setting": "[1]", "result": 0.0509}]}]}
